Test results from patent US6307035, “BRCA1 associated polynucleotide (BAP-1) and uses therefor” (The Wistar Institute of Anatomy and Biology, dated 2001).

B1: LexA-BRCA1-RF fusion construct (amino-terminal 100 amino acids of human BRCA1, wild type, fused to the LexA DNA-binding domain) (other)
chain: MDLSALRVEEVQNVINAMQKILECPICLELIKEPVSTKCDHIFCKFCMLKLLNQKKGPSQCPLCKNDITKRSLQESTRFSQLVEELLKIICAFQLDTGLE
B2: GST-hBAP1(483-594 of SEQ ID NO: 2) fusion protein lacking the minimal interaction domain (other)
chain: QPSPTPSNESTDTASEIGSAFNSPLRSPIRSANPTRPSSPVTSHISKVLFGEDDSLLRVDCIRYNRAVRDLGPVISTGLLHLAEDGVLSPLALTEGGKGSSPSIRPIQGSQG

Key:
[1] = molecular target: GST (glutathione-S-transferase alone) (Schistosoma japonicum (Blood fluke), UniProt P08515 = GST); experiment: GST pull-down, SDS-PAGE and fluorography
[2] = molecular target: full length BRCA1 (human, UniProt P38398); experiment: GST pull-down, SDS-PAGE and fluorography

Binder	binding result [1]	binding result [2]
B1	no binding	–
B2	–	no binding
